B1: LINE1-full (parent)
chain: UACGUAGGUGGUUUUCCCCUGAUAGUGCUAAGGGGGCCUGGAAGUUUGGACUGGGCAGAGCUCAACACAGCGUGGCAAAGUGGCUGUGGCUAGACUGCCUCUCUGGAUUCCUCGUCACUCAGCAGGGCAUCUCUGAGAGAAAUGCC

Variants of: B1
Assay: self-cleavage, relative activity (ratio to wild type); higher = more cleavage; in vitro, sequencing; the parent is a self-cleaving ribozyme

First: UACGUAGGUGGUUUUCCCCUGAUAGUGCUAAGGGGGCCUGGAAGUUUGGACUGGGCAGAGCUCAACACAGCGUGGGAAAGUGGCUGUGGCUAGACUGCCUCUCUGGAUUCCUCGUCACUCAGCAGGGCAUCUCUGAGAGAGAUGCC
Second: UACGUAGGUGGUUUUCCCCUGAUAGUGCUAAGGGGGCCUGGAAGUUUGGACUGGGCAGAGCUCAACACAGCGUGGUAAAGUGGCUGUGGCUAGACUGCCUCUCUGGUUUCCUCGUCACUCAGCAGGGCAUCUCUGAGAGAAAUGCC
The self-cleavage of the first is higher: 2.47 for the first, 2.27 for the second.

Going from UACGUAGGUGGUUUUCCCCUGAUAGUGCUAAGGGGGCCUGGAAGUUUGGACUGGGCAGAGCUCAACACAGCGUGACAAAGCGGCUGUGGCUAGACUGCCUCUCUGGAUUCCUCGUCACUCAGCAGGGCAUCUCUGAGAGAAAUGCC to UACGUAGGUGGUUUUCCCCUGAUAGUGCUAAGGGGGCCUGGAAGUUUGGACUGGGCAGAGCUCAACACAGCGUGGUAAAGUGGCUGUGGCUAGACUGCUUCUCUGGAUUCCUCGUCACUCAGCAGGGCAUCUCUGAGAGAAAUGCC, the self-cleavage rises from 0.67 to 0.99.

First: UACGUAGGUGGUUUUCCCCUGAUAGUGCUAAGGGGGCCUGGAAGUUUGGACUGGGCAGAGCUCAACACAGCGUGGGAAAGUGGAUGUGGCUAGACUGCCUCUCUGGAUUCCUCGUCACUCAGCAGGGCAUCUCUGAGAGAAAUGCC
Second: UACGUAGGUGGUUUUCCCCUGAUAGUGCUAAGGGGGCCUGGAAGUUUGGACUGGGCAGAGCUCAACACAGCGUGCCAAAGUGGCUGUGGCUAGACUGCCUCUCUGGAUUCCUCGUCACUCAGCAGGGCAUCUCUGAGAGAAUUGCC
The self-cleavage of the first is lower: 0.14 for the first, 0.66 for the second.

Going from UACGUAGGUGGUUUUCCCCUGAUAGUGCUAAGGGGGCCUGGAAGUUUGGACUGGGCAGAGCUCAACACAGCGUGGUAAAGUGGCUGUGGCUAGACUGCCUCUCUGGAUUCCUCGUCGCUCAGCAGGGCAUCUCUGAGAGAAAUGCC to UACGUAGGUGGUUUUCCCCUGAUAGUGCUAAGGGGGCCUGGAAGUUUGGACUGGGCAGAGCUCAACACAGCGUGGUAAAGUGGCUGUGGCUAGACUGCCUCUCUGGAUUCCUCGUCCCUCAGCAGGGCAUCUCUGAGAGAAAUGCC, the self-cleavage rises from 2.24 to 2.66.

Compared with UACGUAGGUGGUUUUCCCCUGAUAGUGCUAAGGGGGCCUGGAAGUUUGGACUGGGCAGAGCUCAACACAGCGUGGGAAAGUGGCUGUGGCUAGACUGCCUCCCUGGAUUCCUCGUCACUCAGCAGGGCAUCUCUGAGAGAAAUGCC, UACGUAGGUGGUUUUCCCCUGAUAGUGCUAAGGGGGCCUGGAAGUUUGGACUGGGCAGAGCUCAACACAGCGUGGUAAAGUGGCUGUGGCUAGACUGCCUCUCUGGAUUCCUAGUCACUCAGCAGGGCAUCUCUGAGAGAAAUGCC is lower in self-cleavage: 2.25 for the first, 2.15 for the second.

First: UACGUAGGUGGUUUUCCCCUGAUAGUGCUAAGGGGGCCUGGAAGUUUGGACUGGGCAGAGCUCAACACAGCGUGACAAAGUGGCUGUGGCUAGACUGCCUCUCUGGAUUCCUCGUCACUCAGUAGGGCAUCUCUGAGAGAAAUGCC
Second: UACGUAGGUGGUUUUCCCCUGAUAGUGCUAAGGGGGCCUGGAAGUUUGGACUGGGCAGAGCUCAACACAGCGUGACAAAGUGGCUGGGGCUAGACUGCCUCUCUGGAUUCCUCGUCACUCAGCAGGGCAUCUCUGAGAGAAAUGCC
The self-cleavage of the first is higher: 0.69 for the first, 0.18 for the second.

Going from UACGUAGGUGGUUUUCCCCUGAUAGUGCUAAGGGGGCCUGGAAGUUUGGACUGGGCAGAGCUCAACACAGCGUGGUAAAGUGGCUGUGGCUAGACUGCCUCUCUGGAUUCCUCGUCACUCAGCAGGGCUUCUCUGAGAGAAAUGCC to UACGUAGGUGGUUUUCCCCUGAUAGUGCUAAGGGGGCCUGGAAGUUUGGACUGGGCAGAGCUCAACACAGCGUGCCAAAGUGGCUGUGGCUAGACUGCCUCUCUGGAUCCCUCGUCACUCAGCAGGGCAUCUCUGAGAGAAAUGCC, the self-cleavage falls from 1.57 to 0.62.

Compared with UACGUAGGUGGUUUUCCCCUGAUAGUGCUAAGGGGGCCUGGAAGUUUGGACUGGGCAGAGCUCAACACAGCGUGUCAAAGUGGCUGUGGCUAGACUGCCUCUCUGGAUCCCUCGUCACUCAGCAGGGCAUCUCUGAGAGAAAUGCC, UACGUAGGUGGUUUUCCCCUGAUAGUGCUAAGGGGGCCUGGAAGUUUGGACUGGGCAGAGCUCAACACAGCGUGACAAAGUGGCUGUGGCUAGACUGCCUCUCUGGAUUCCACGUCACUCAGCAGGGCAUCUCUGAGAGAAAUGCC is higher in self-cleavage: 0.7 for the first, 0.91 for the second.

Compared with UACGUAGGUGGUUUUCCCCUGAUAGUGCUAAGGGGGCCUGGAAGUUUGGACUGGGCAGAGCUCAACACAGCGUGGUAAAGUGGCUGUGGCUAGACUGCCUCUCUGGAUUCCUCGUCACUCAGCAGGGCAUCUCUGAGAGGAAUGCC, UACGUAGGUGGUUUUCCCCUGAUAGUGCUAAGGGGGCCUGGAAGUUUGGACUGGGCAGAGCUCAACACAGCGUGGUAAAGUGGCUGUGGCUAGACUGCCUCUCUGGAUUCCUCGUCACUCAGCAGGGCAUCUCUGAGAGUAAUGCC is lower in self-cleavage: 2.36 for the first, 2.07 for the second.

Going from UACGUAGGUGGUUUUCCCCUGAUAGUGCUAAGGGGGCCUGGAAGUUUGGACUGGGCAGAGCUCAACACAGCGUGACAAAGUGGCUGUGGCUAGACUGCCCCUCUGGAUUCCUCGUCACUCAGCAGGGCAUCUCUGAGAGAAAUGCC to UACGUAGGUGGUUUUCCCCUGAUAGUGCUAAGGGGGCCUGGAAGUUUGGACUGGGCAGAGCUCAACACAGCGUGACAAAGUGGCUGUGGCUAGACUGCCACUCUGGAUUCCUCGUCACUCAGCAGGGCAUCUCUGAGAGAAAUGCC, the self-cleavage falls from 1.5 to 0.42.
